# Source: the domain aggregation screens of Martell et al. (2025)
# Experiment: soluble fraction after stress (log2 fold change); higher = more stays soluble; pooled small domains, quantitative proteomics
# Conditions: stress: 50 degC
# Procedure, shortened: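 Pooled custom libraries of small protein domains were each held under stress at 50°C. The read-out, high-throughput quantitative proteomics, tracked how much of each protein stayed soluble. This is reported as a base-two log fold change used to indicate aggregation propensity. Higher values mean more protein remains in solution.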
row,Sequence,soluble fraction (log2)
1,HMRPRWTEQEVERAKAIKMIYPNAYRLESSDVFVQVWSKEEILLAHVEVDMFPSLRPGQPVELDEIIG,0.103
2,HMRPTAWDQISDWLDRHGSIANADVVRIAGLDTLKASKLLTTWREQGLLEPLPGRGKRNMAYVRAI,-0.554
3,HMRPTVNETQIREVFRSILGREVDPEGLRHYLGQAAKGWSIDQIRADVNNSQEAHQRRAELARQAEELK,0.181
4,HMRQDEKTLLYWIAGHLKREGRQITERSARHLVEQVGTDMENLSREMEKLIAYTMGRTEITGQDIDDI,-1.68
5,HMRQEIIEDSRKLLEESLKRYDLTYQEFIDTLKSKNMNVESTLINIIKNQSSLDLVLRNLGLIAP,-0.0959
6,HMRQISDPTALASMVDKVIEDNPSAVADYRRGESKALGFLIGRVMQSSGGKANPKMIRGLLVKNLES,-0.0922
7,HMRQMIIIMQKQAAASSVAAVVEFIRSKGLREHISPGAERTIIGAVGDERVFLPQELESLPQVERAIRVL,-1.14
8,HMRQPAAVEYSTFLDWVHASQVERVVFEGDTIRGVRVTGEGFVTYSPETDNTALIGELKKSRVQISATAP,-0.153
9,HMRQQAFWALVPEERDVLDETGAPLFRIGPTAWALVIEDRGEVFVVRDEDGRVGYLHEVDGVTR,-1.52
10,HMRQQLAEILQKAVDNLPEAQRLVWLLRDKSDMTFKEIAEDLQLTEANVRVLLHRARLKLLAVINQYEE,-1.38
11,HMRQYKEMPYRLFLIHLGKGLVDEVELSDKAKLTGKLKNGKIFITDNPRTENFKEQLLLHDVKVKEG,0.12
12,HMRQYTPEQLETAVLVLEEVRQGRRLDRALRSHPMPDGRLIAKHVLVAAYRKLVAEGTWKEDPEFLSRIRM,-0.237
13,HMRRADRLLQLIQILRRHRRPVTGDVMARELEVSLRTVYRDIATLTIEGVPIRGEAGVGYVLGEGY,-2.39
14,HMRRDEDLAHGRELLEKELRKQGLEVSENLKQDKLLEGAKRLGFLEAEDLVVAVGSGKVSAGMAVGRIIG,0.16
15,HMRREKVLIKLAENLASKVLRTKKSIELEPMTPYERKVIHTTIENISGVKSWSEGENLQRHLIVALDE,-1.3
16,HMRRGPLTPDDFVLDMRVVHPRYGVGRIVALSGSGESRKATVDFGGSIGRMKFVLSQSPLKP,-0.414
17,HMRRHLLEMNDAIGRLGRLISEDPADRDVAEVIWAALRGMVMGQMIMNEPIDWQRERRTLVEMAIGR,0.0146
18,HMRRIADVVPEQLTREEAEELLETLAEQGEIHEEQALLARYILEQSLQGVAPEVEPLIRAKLLAGILMVY,-1.69
19,HMRRKDIEFTNTMLEELYRHNSKWYDAVVRAYALEIPQKQIAEEMGIRLEAFQSMLFRAKKWIKTKYEADY,-2.51
20,HMRRNLSGEDTIVNRMAQWQYTQEQKNELHKMMDAGMPQEDILSVFYPEIKAEEMHRFLLAFQTAHNSG,-0.162
21,HMRRPRGVFNLVPRGFKRFGFITPDGGGEDMFAHLENVRAGHVVEDRNAVEYGIGRGPDGRDQAVDIVPVP,0.049
22,HMRRPTYPTVTTEAGMVVEDRSSGFVGDIVRWSFEGVTLRDRQQQLRHFTWKPGGFLINGTPVTLKRPE,-0.629
23,HMRRRVIGTLVMGDMSTDFKVLADGHTHRVLAAAISFHKAKPGDEVVILVPKSAPSKWAAVEHVMK,0.458
24,HMRSAKLPYSEFLKLVDTDKVNDVSIVGRTISGHLDDGSKFSTYTPPNDPNIIEKLSSHNVIINSAPE,-0.0117
25,HMRSASFDIMSQKQSDATLGYERVYDTETNEVYKAYNGFTDDYDGERYKSISDNMYTKGISGYIEK,0.327
26,HMRSDSEIKEDVLDELMWQPNIDETQIGVIVEKGVVTLTGFVDAYAKKTAALDAVKNVKGVKAVANDIEV,0.131
27,HMRSFGRLRRRDSGRWEAAYVGPDARLYRAPATFEAKDDAIAWLSAERRMIELDTWIKPHDRASR,-1.11
28,HMRSGFAFSEEEIKHLDNIVSPLLIKGQSIHHISIFHKDEVMMSERTLYSYVNNGLFSARNIDMPRTVRMR,0.14

row,Sequence,soluble fraction (log2)
1,HMRSISVEMDGKEYLIPTVSENGKVLSDDDAVKQFKKTGKHLDVFDSPEDATAYARQLHEDQESFYA,0.142
2,HMRSKTDLVYEEIKKLILRGELSSDTPISENHLARRFEISRTPIREALKRLHIEGFVRIIPNHGVFVR,-0.343
3,HMRSLAVGNVVSEEGKPSYLLLDSKRTMLFSENSIPSLYLEDGRRVIVNYTLLDEDYQGYDFRIHVNDIDT,-0.113
4,HMRSNADALIGRTARVSQTIVENGFGRVALDGDDWKAQAADGSRIEEGQNVIVKDRDSIILTVEKE,0.074
5,HMRSNIYTEEKLWTVLQDFFQENRYLTISLMRMKFGLSRHMAQKWIDHFIAKGLLVKDGTPRSPIYFLND,-2.3
6,HMRSNQKVSQIAISQVLPGMVTAKNVYSRNDQLILNRETTLDSTKIAKIMFYAIESIYVYEPE,-1.9
7,HMRSPVDALSNRELQVLQMVGRGLSSRQVAEALHLSVKTVEAHRQRIKGKLGLRTGAQLVQFAANWVTG,-1.27
8,HMRSREGVRWIIRERIMEELQERHHMDDGELLEMIDRSIGEMGQEIFLPLKERIWLRGSLFDSFR,-3.1
9,HMRSWRDQRVDDLLAAVSELGMTMSRAAAGDLLDQRVEYVANQMRVTPATARKYLTEETLAGMAREIVFG,-0.693
10,HMRTAFPQLTERELEILDLIAAGRNNAQIASALYLAPKTVRNNVSNILAKLQATDRAEAIIRARDAGLGG,-0.0599
11,HMRTAKEVFYKELKGYMQNGDELSVKKIYSLFPEINPKTVSWRLHELVQHGKIHRTGHGYYALTQ,-1.07
12,HMRTDTIINSGGLKINPEEVENEILKSLGDNNFFIDKIKNDKFGEEIILIALKKIKINLLIESLNLI,0.0394
13,HMRTFFEIEQLKAYVGEEIQVKFEADSHKQTVLGKLISISEDFIEIENSKKGNLKISLDNYLTSKLIY,-1.6
14,HMRTGSSVLVGLVAPVRLGATGAPKVFADGALWEARSAVPLNDGQLVEITGTDGLTVLVKPSA,0.0494
15,HMRTIVSELNDIKGISDASAKKLLIRYGSFEAVREAVMKHEEEFELDMGKRITGALTRYFYEE,-1.61
16,HMRTKLEEAVEWLQEQLNDGPVLSKELESEAKAADILPGTLRRAGEALGVVKQKQGGRGGWTWSLPR,0.14
17,HMRTLGADLRALRKARGLTLAGMADNMGKSVGWMSQIERDISEPSISDLRALAKLLDVSVSSLFR,-2.23
18,HMRTQEELVAEVREQMEAMGTIATLYVELYESSEERLVGGVIFEDERHYRFVYEDGLLHYEEEK,-0.206
19,HMRTRSDVKRAAIIQAAKDAFQEYGVNATSMDKLAEMASVSKRTVYNHFSAKEELVMHIVKE,0.166
20,HMRTVPEALLGRAYETAETAIVLEGLEAKRTDVFHPTIGNGTVIRLEPASGSQVSAGGVIEIFVSKGTETI,-0.305
21,HMRVDYKTQLQELLQRQGAAAPQYRLLVEEGPAHLRRFQVGVYFQGRLLGTGWGRNKKEAEQEAARQALMP,-0.494
22,HMRVEEVGYGEFLQMAEERDLAEVQVTDTEIIFSDKDTPPNYYKTGRMDDPFLVDRLYSAGIRDFGE,-0.298
23,HMRVESVGDRIRRLRKSLGLTQVKLAQMLGIKAPSVVQWESDKTNLSGENLLNAAKLFGVTPDYILYGG,-0.0657
24,HMRVLEYTADGSRLDVLLSQDGVLSRSRAAELIKGGAVTVDGRAEGKPSAKPAPGALVRVEVPE,-0.01
25,HMRVVGRNHYDDADLAHIRSVIQLEARPLNVSRIARTLANEYPKHTYWSYLSFLQKNLRDRPDLF,-1.83
26,HMRVVPEILERAVAVFEALGVDRLPSSTLADRLGYDSPEALADVLRPLGVRPKKYRDGKSTARGYLAADLG,-0.473
27,HMRYEESVTLGERLLNQSLVALKADNIDDALWERFLREEAGEKSRQEILSDIGLGKRLPVVVAKRLLAPS,0.0281
